From publication PMC6759196 come the findings set out here.

This assay deals with Smlt3024 (Stenotrophomonas maltophilia K279a) (UniProt B2FJJ5). As to the kind of experiment: SEC-MALS; Superdex 200 10/300 GL coupled to a Wyatt MALS detector; isolated proteins and their mixture analysed, peaks checked by SDS-PAGE; dn/dc = 0.185 mL/g. For orientation: In gel filtration, larger molecules generally elute earlier.

For the substance Smlt3025_(86-333) (domain or fragment), the stoichiometry N (Smlt3024:Smlt3025 (86-333) ratio) was 1.
